Test results taken from patent US20250352667A1.
Substitutions are numbered along the chain they refer to. In names and notes the source's numbering stands. Each block holds one binder with its values, some of them ahead of it.

Tests used:
[1] = target: KEAP1 (wild-type full-length), His-tagged (human) (UniProt Q14145); assay: AlphaScreen; 38.4 nM FLAG-NRF2, 150 nM His-KEAP1; wild type set to 100%
[2] = target: KEAP1 (wild-type full-length), His-tagged (human) (UniProt Q14145); assay: AlphaScreen; 2.4 nM FLAG-NRF2, 150 nM His-KEAP1; Rep 1; control for I28V
[3] = target: KEAP1 (wild-type full-length), His-tagged (human) (UniProt Q14145); assay: AlphaScreen; 4.8 nM FLAG-NRF2, 150 nM His-KEAP1; Rep 1; control for I86V
[4] = target: KEAP1 (wild-type full-length), His-tagged (human) (UniProt Q14145); assay: AlphaScreen; 76.8 nM FLAG-NRF2, 150 nM His-KEAP1; Rep 1; control for I28V
[5] = target: KEAP1 (wild-type full-length), His-tagged (human) (UniProt Q14145); assay: AlphaScreen; 153.6 nM FLAG-NRF2, 150 nM His-KEAP1; Rep 1; control for I28V
[6] = target: KEAP1 (wild-type full-length), His-tagged (human) (UniProt Q14145); assay: AlphaScreen; 153.6 nM FLAG-NRF2, 150 nM His-KEAP1; Rep 3; control for I86V
[7] = target: KEAP1 (wild-type full-length), His-tagged (human) (UniProt Q14145); assay: AlphaScreen; 2.4 nM FLAG-NRF2, 150 nM His-KEAP1; signal against NRF2 only; control for I28V
[8] = target: KEAP1 (wild-type full-length), His-tagged (human) (UniProt Q14145); assay: AlphaScreen; 614.4 nM FLAG-NRF2, 150 nM His-KEAP1; signal against NRF2 only; control for I28V
[9] = target: KEAP1 (wild-type full-length), His-tagged (human) (UniProt Q14145); assay: AlphaScreen; mean over 9.6, 19.2 and 38.4 nM NRF2 wt isoform 1, KEAP1 150 nM; reference for I86V
[10] = target: KEAP1 (wild-type full-length), His-tagged (human) (UniProt Q14145); assay: AlphaScreen; FLAG-NRF2 wt isoform 1 153.6 nM, His-KEAP1 150 nM; Rep 2; positive control for Q75R
[11] = target: KEAP1 (wild-type full-length), His-tagged (human) (UniProt Q14145); assay: AlphaScreen; FLAG-NRF2 wt isoform 1 1228.8 nM, His-KEAP1 150 nM; Rep 2; positive control for Q75R
[12] = target: KEAP1 (wild-type full-length), His-tagged (human) (UniProt Q14145); assay: AlphaScreen; NRF2 wt isoform 1 4.8 nM, KEAP1 150 nM; signal against NRF2-only control; control for Q75R
[13] = target: KEAP1 (wild-type full-length), His-tagged (human) (UniProt Q14145); assay: AlphaScreen; NRF2 wt isoform 1 19.2 nM, KEAP1 150 nM; signal against NRF2-only control; control for I86V
[14] = target: KEAP1 (wild-type full-length), His-tagged (human) (UniProt Q14145); assay: AlphaScreen; NRF2 wt isoform 1 307.2 nM, KEAP1 150 nM; signal against NRF2-only control; control for Q75R
[15] = target: KEAP1 (wild-type full-length), His-tagged (human) (UniProt Q14145); assay: AlphaScreen; NRF2 wt isoform 1 1228.8 nM, KEAP1 150 nM; signal against NRF2-only control; control for Q75R
[16] = target: KEAP1 (wild-type full-length), His-tagged (human) (UniProt Q14145); assay: AlphaScreen; 2.4 nM FLAG-NRF2, 150 nM His-KEAP1; Rep 1
[17] = target: KEAP1 (wild-type full-length), His-tagged (human) (UniProt Q14145); assay: AlphaScreen; 4.8 nM FLAG-NRF2, 150 nM His-KEAP1; signal against NRF2 only
[18] = target: KEAP1 (wild-type full-length), His-tagged (human) (UniProt Q14145); assay: AlphaScreen; 307.2 nM FLAG-NRF2, 150 nM His-KEAP1; signal against NRF2 only
[19] = target: KEAP1 (wild-type full-length), His-tagged (human) (UniProt Q14145); assay: AlphaScreen; 19.2 nM FLAG-NRF2, 150 nM His-KEAP1 (same value as in Table 27)
[20] = target: KEAP1 (wild-type full-length), His-tagged (human) (UniProt Q14145); assay: AlphaScreen; FLAG-NRF2 Q75R 307.2 nM, His-KEAP1 150 nM; Rep 1
[21] = target: KEAP1 (wild-type full-length), His-tagged (human) (UniProt Q14145); assay: AlphaScreen; FLAG-NRF2 Q75R 19.2 nM, His-KEAP1 150 nM; Repeat 2
[22] = target: KEAP1 (wild-type full-length), His-tagged (human) (UniProt Q14145); assay: AlphaScreen; NRF2 Q75R 2.4 nM, KEAP1 150 nM; signal against NRF2-only control
[23] = target: KEAP1 (wild-type full-length), His-tagged (human) (UniProt Q14145); assay: AlphaScreen; FLAG-NRF2 I86V 614.4 nM, His-KEAP1 150 nM; Rep 3
[24] = target: KEAP1 (wild-type full-length), His-tagged (human) (UniProt Q14145); assay: AlphaScreen; FLAG-NRF2 I86V 1228.8 nM, His-KEAP1 150 nM; Rep 2
[25] = target: KEAP1 (wild-type full-length), His-tagged (human) (UniProt Q14145); assay: AlphaScreen; FLAG-NRF2 I86V 1228.8 nM, His-KEAP1 150 nM; Rep 3
[26] = target: KEAP1 (wild-type full-length), His-tagged (human) (UniProt Q14145); assay: AlphaScreen; NRF2 I86V 19.2 nM, KEAP1 150 nM; signal against NRF2-only control
[27] = target: KEAP1 (wild-type full-length), His-tagged (human) (UniProt Q14145); assay: AlphaScreen; NRF2 I86V 38.4 nM, KEAP1 150 nM; signal against NRF2-only control

Sequence of KEAP1 (wild-type full-length), His-tagged (human) (Q14145 2-624 limits assumed): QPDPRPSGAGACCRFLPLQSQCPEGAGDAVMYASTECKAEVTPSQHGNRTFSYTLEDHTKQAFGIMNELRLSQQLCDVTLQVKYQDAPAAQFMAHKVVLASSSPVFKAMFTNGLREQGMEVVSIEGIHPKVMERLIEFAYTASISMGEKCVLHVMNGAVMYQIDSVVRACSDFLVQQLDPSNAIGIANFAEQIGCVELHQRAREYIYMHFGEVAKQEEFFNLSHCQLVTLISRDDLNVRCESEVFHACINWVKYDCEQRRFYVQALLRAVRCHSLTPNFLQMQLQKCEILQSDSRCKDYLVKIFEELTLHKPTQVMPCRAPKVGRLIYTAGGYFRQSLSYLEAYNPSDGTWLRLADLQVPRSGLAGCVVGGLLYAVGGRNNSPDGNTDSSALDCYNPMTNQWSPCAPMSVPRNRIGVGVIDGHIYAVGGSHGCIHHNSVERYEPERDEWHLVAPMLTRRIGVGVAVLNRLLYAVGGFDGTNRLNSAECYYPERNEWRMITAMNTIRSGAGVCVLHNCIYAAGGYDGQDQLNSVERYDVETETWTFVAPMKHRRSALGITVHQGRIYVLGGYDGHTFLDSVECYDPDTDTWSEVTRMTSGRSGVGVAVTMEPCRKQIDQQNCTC

B2: NRF2 isoform 1 (I28V full-length), FLAG-tagged (protein)
chain: MMDLELPPPGLPSQQDMDLIDILWRQDVDLGVSREVFDFSQRRKEYELEKQKKLEKERQEQLQKEQEKAFFAQLQLDEETGEFLPIQPAQHIQSETSGSANYSQVAHIPKSDALYFDDCMQLLAQTFPFVDDNEVSSATFQSLVPDIPGHIESPVFIATNQAQSPETSVAQVAPVDLDGMQQDIEQVWEELLSIPELQCLNIENDKLVETTMVPSPEAKLTEVDNYHFYSSIPSMEKEVGNCSPHFLNAFEDSFSSILSTEDPNQLTVNSLNSDATVNTDFGDEFYSAFIAEPSISNSMPSPATLSHSLSELLNGPIDVSDLSLCKAFNQNHPESTAEFNDSDSGISLNTSPSVASPEHSVESSSYGDTLLGLSDSEVEELDSAPGSVKQNGPKTPVHSSGDMVQPLSPSQGQSTHVHDAQCENTPEKELPVSPGHRKTPFTKDKHSSRLEAHLTRDELRAKALHIPFPVEKIINLPVVDFNEMMSKEQFNEAQLALIRDIRRRGKNKVAAQNCRKRKLENIVELEQDLDHLKDEKEKLLKEKGENDKSLHLLKKQLSTLYLEVFSMLRDEDGKPYSPSEYSLQQTRDGNVFLVPKSKKPDVKKN
A-counts [16]: 697 A-counts
S/N [17]: 2.9
S/N [18]: 1.2
S/N [19]: 3.2

B4: NRF2 isoform 1 (I86V full-length), FLAG-tagged (protein)
chain: B2 chain with V28I, I86V
A-counts (NRF2 plus KEAP1) [23]: 1920 A-counts
A-counts (NRF2 plus KEAP1) [24]: 1580 A-counts
A-counts (NRF2 plus KEAP1) [25]: 1620 A-counts
S/N [26]: 4
S/N [27]: 2.9

Next, values leading:

Binding Percentage (%) [1]: 100%
A-counts [2]: 622 A-counts
A-counts [3]: 1810 A-counts
A-counts [4]: 2000 A-counts
A-counts [5]: 1930 A-counts
A-counts [6]: 2990 A-counts
S/N [7]: 2.2
S/N [8]: 1
Average Binding [9]: 100%
A-counts (NRF2 plus KEAP1) [10]: 1500 A-counts
A-counts (NRF2 plus KEAP1) [11]: 1360 A-counts
S/N [12]: 2.5
S/N [13]: 4.1
S/N [14]: 1.4
S/N [15]: 0.9
B1: NRF2 isoform 1 (wild-type full-length), FLAG-tagged (protein)
chain: B2 chain with V28I

A-counts (NRF2 plus KEAP1) [20]: 995 A-counts
A-counts (NRF2 plus KEAP1) [21]: 1280 A-counts
S/N [22]: 2
B3: NRF2 isoform 1 (Q75R full-length), FLAG-tagged (protein)
chain: B2 chain with V28I, Q75R
